# Experimental data: patent US20200199250A1 (KYMAB, published 2020)
# B1: IXAX-1280.0999.0325 (bispecific antibody, human IgG4 S228P, lambda)
# heavy 1: EVQLVESGGGFVQPGGSLRLSCAVSGFRFNSYWMSWVRQAPGKGLEWVANINQDGSRKFYVASVKGRFTMSRDNAKKSVYVQMNSLRAEDTAVYYCAREGYSSIKYYGMDVWGQGTTVTVSSASTKGPSVFPLAPCSRSTSESTAALGCLVKDYFPEPVTVSWNSGALTSGVHTFPAVLQSSGLYSLSSVVTVPSSSLGTQTYTCNVDHKPSNTKVDKRVESKYGPPCPPCPAPEFLGGPSVFLFPPKPKDTLMISRTPEVTCVVVDVSQEDPEVQFNWYVDGVEVHNAKTKPREEQYNSTYRVVSVLTVLHQDWLNGKEYKCKVSNKGLPSSIEKTISKAKGQPREPQVYTLPPSQEEMTKNQVSLTCLVKGFYPSDIAVEWESNGQPENNYKTTPPVLDSDGSFFLYSKLTVDKSRWQEGNVFSCSVMHEALHNHYTQESLSLSP
# heavy 2: QVQLIQSGAKVKKPGASVKVSCKASRYKFTSYYMHWVRQAPGQGLEWMGIINPKSGSTSYAQKFQGRVTMTRDTSTSTVYMELSSLRSEDTAVYYCARDGYGSFSRLIQLWGQGTLVTVSSASTKGPSVFPLAPCSRSTSESTAALGCLVKDYFPEPVTVSWNSGALTSGVHTFPAVLQSSGLYSLSSVVTVPSSSLGTQTYTCNVDHKPSNTKVDKRVESKYGPPCPPCPAPEFLGGPSVFLFPPKPKDTLMISRTPEVTCVVVDVSQEDPEVQFNWYVDGVEVHNAKTKPREEQYNSTYRVVSVLTVLHQDWLNGKEYKCKVSNKGLPSSIEKTISKAKGQPREPQVYTLPPSQKEMTKNQVSLTCLVKGFYPSDIAVEWESNGQPENNYKTTPPVLDSDGSFFLYSKLTVDKSRWQEGNVFSCSVMHEALHNHYTQKSLSLSP
# light: YVLTQPPSVSVAPGETARITCGGDNIGRKSVYWYQQKSGQAPVLVIYYDSDRPSGIPERFSGSNSGNTATLTISRVEAGDEADYYCQVWDGSSDHWVFGGGTKLTVLGQPKAAPSVTLFPPSSEELQANKATLVCLISDFYPGAVTVAWKADSSPVKAGVETTTPSKQSNNKYAASSYLSLTPEQWKSHKSYSCQVTHEGSTVEKTVAPTECS
# Biological target: human factor X (human, UniProt P00742 41-179; P00742 183-488)
# Sequence (P00742 41-179, chain 1 of 2): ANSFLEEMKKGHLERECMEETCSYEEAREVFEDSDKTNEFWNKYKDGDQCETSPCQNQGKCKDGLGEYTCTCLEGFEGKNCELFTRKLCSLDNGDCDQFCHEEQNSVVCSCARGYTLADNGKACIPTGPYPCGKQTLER
# Sequence (P00742 183-488, chain 2 of 2): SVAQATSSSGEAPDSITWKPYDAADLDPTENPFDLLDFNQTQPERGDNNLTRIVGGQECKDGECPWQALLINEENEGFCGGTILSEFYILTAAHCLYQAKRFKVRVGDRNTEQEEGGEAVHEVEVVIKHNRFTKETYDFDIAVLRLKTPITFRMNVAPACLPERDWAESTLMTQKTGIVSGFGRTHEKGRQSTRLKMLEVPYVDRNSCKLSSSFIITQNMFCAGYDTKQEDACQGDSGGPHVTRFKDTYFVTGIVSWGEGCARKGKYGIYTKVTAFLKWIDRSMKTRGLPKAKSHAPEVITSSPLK
# Assay: cell-based or functional assay
binder,measurement,value
B1,"EC50, Hyphen chromogenic FVIII mimetic activity assay (FXa generation with added FX and FIXa in diluted FVIII deficient plasma; OD405)",5.92 nM
